This note sets out measurements from paper PMC11783756, “Sorbitol induces flavonoid accumulation as a secondary signal via the nanoencapsulated SPc/lncRNA809-MmNAC17 module against Alternaria alternata in Malus micromalus”.

This data set concerns the target T1, MmNAC17 (Malus micromalus, UniProt D9ZJ94 1-336).
T1 sequence: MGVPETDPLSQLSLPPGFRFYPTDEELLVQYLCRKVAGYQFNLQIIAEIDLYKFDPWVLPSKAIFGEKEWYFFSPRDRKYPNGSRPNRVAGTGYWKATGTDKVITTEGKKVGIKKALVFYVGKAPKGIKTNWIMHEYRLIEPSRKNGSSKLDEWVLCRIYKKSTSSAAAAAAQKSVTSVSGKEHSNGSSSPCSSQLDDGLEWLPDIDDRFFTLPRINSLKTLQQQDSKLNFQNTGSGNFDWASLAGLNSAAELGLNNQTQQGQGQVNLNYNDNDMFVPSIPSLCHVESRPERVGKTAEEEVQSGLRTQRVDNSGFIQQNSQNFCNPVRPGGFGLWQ
Briefly: EMSA; binding disrupted by unlabeled competitor (100x); Chemiluminescence EMSA kit (Beyotime); binding buffer, salt, pH and temperature not stated. The settings on record: protein: recombinant; tags: His (pET-30a, Ni-NTA purified); chain copies: 2; blunt. For orientation: Mobility shift assays separate free from complexed probe on a gel.

B1: proMmLAR probe (dsDNA)
DNA 1: GAAGATATCACACGTAGCCAAAAGCG
DNA 2: CGCTTTTGGCTACGTGTGATATCTTC
Consider B1, for which the binding result is “binds”.

B2: proMmF3H probe (dsDNA)
DNA 1: AGGTGAAGATCACGTGGCGCAATTTC
DNA 2: GAAATTGCGCCACGTGATCTTCACCT
As to B2, the binding result is “binds”.
